Measured values from the RNAGym collection of RNA variant scans (doi:10.7554/elife.80360).

B1: HDV Ribozyme (parent)
chain: GGCCGGCAUGGUCCCAGCCUCCUCGCUGGCGCCGGCUGGGCAACAUUCCGAGGGGACCGUCCCCUCGGUAAUGGCGAAUGGGACCCA

Variants of: B1
Assay: self-cleavage, relative activity (ratio to wild type); higher = more cleavage; co-transcriptional

Variant	self-cleavage
U69G U72A	0.369
U72C C85U	0.511
U69A C75U	0.155
U69G A70C	1.15
A70G G80U	0.177
A70G G80A	0.271
U72C G74A	0.363
U72C G74C	0.26
A71U U79G	0.831
U72C C86G	0.277
A70G U72A	0.594
U72C A87C	0.597
U72C A87G	0.712
U72C A77C	0.246
A71C G73A	0.45
A71U A78G	0.59
A71U A78C	0.188
A70G A71G	0.918
A70G A71C	0.712
U69G C75G	0.199
A70C C86A	1.11
A70C C86U	0.852
U69G G76C	0.77
A71G G80A	0.288

Variant	self-cleavage
U72C A83C	0.332
U72C A83U	0.128
A70U A77C	0.0978
U72G G80C	0.26
U69C A77G	0.997
U69A G82A	0.233
G73A C75U	0.119
G73A C75G	0.19
A70C A78G	0.519
A70C A78U	0.162
U69C A83C	0.57
A71C U79C	0.269
A70C U72C	0.369
A71G A77C	0.45
A70C U79C	0.18
U69C C84U	0.852
A71U A77G	0.508
A71U A77U	0.415
A71U C85G	0.587
A70U A71U	0.98
A70U A71G	1.09
U72C G80A	0.138
U69C A78U	0.375
U69C U72A	0.499

Variant	self-cleavage
U69C U72C	0.9
U69G A77G	1.29
U69G A78C	0.332
U72G G76C	0.594
U72G G76U	0.646
A70U G76C	1
A70U G76A	1.02
U72A A78C	0.125
G73A G82C	0.172
G73A C85G	0.703
G73A A83C	0.198
A71G C86U	0.665
A71G C86A	1.19
G73A C84A	0.564
G73C C85U	0.415
G73C C85G	0.527
A70U U79G	0.617
U72G G82U	0
A71G G73U	0.291
U69G C86U	0.723
A70C C75A	0.123
A70C A71U	0.791
A71G A83C	0.415
U72C A78G	0.237

Variant	self-cleavage
U72A G80U	0.251
A70G A77G	0.831
U69C A71C	0.475
A70U A83G	0.902
U72G G74C	0.237
A71U G74A	0.519
A71U G74U	0.689
U69G G73U	0.314
A71C C85A	0.578
A70G C84G	0.475
A71U G81A	0.277
A71U G82A	0.365
U72G C84U	0.386
A70G G82U	0.415
A70G G76A	0.92
U69G G82C	0.429
U69G G82U	0.208
A70G C86G	1.03
U72G U79A	0.534
U72G U79C	0.297
G73C C75U	0.0755
A71C G80C	0.302
A70U A87C	0.98
U72C G76C	0.779

Variant	self-cleavage
U72C G76U	1.01
U72C G76A	0.962
A70U U72G	0.554
A70U U72A	0.415
A71U G80U	0.21
A71U G80C	0.185
G73C C86U	0.914
A71U U72C	0.57
A71U U72A	0.969
A71G G82U	0.312
A71G G82A	0.538
A70C G80C	0.135
A70C G80A	0.177
A70U G73C	0.332
U69C C85U	1.15
U72A C75G	0.119
U72A C75U	0.199
U69C A70C	1.23
U69C A70U	0.875
G73C A78G	0.237
U72C C84A	0.166
U72C C84G	0.369
U69A G81U	0.332
U72A C86G	0.674

Variant	self-cleavage
A71U G73C	0.54
U69G C84G	0.639
U72G C85G	0.609
U69C G74C	0.0923
A70G C85U	1.01
A70G G74U	0.65
A70G G74A	0.453
A71U A87U	0.897
A71U A87G	0.831
A70C G74U	0.504
G73C A77G	0.44
A71U A83U	0.426
U72A A77G	0.57
U72G A78G	0.426
U72G A78C	0.0831
A71G C84A	1.02
U72C U79G	0.133
A70G A78U	0.151
G73C G74A	0.422
G73C G74U	0.166
U72A G74U	0.397
A70U G80U	0.222
A70U C84G	0.541
U69A G74U	0.665

Variant	self-cleavage
A70C G76U	1.05
U69G A87G	0.876
U72A	0.698
U72G	0.662
U72C	0.589
U69G G74A	0.614
U69G G74U	0.607
G73A C86A	0.781
U69C G80C	0.0396
U69C G81U	0.369
A71C U72A	0.332
A71C U72G	0.465
A71C U72C	0.185
U69A G73A	0.619
G73C A87C	0.592
G73C A87G	0.454
A71C G76U	0.91
U72G G81C	0.0791
G73A G76A	0.665
A71G A78U	0.229
A71G A78G	0.772
A71U C75G	0.0852
U69G A83G	0.739
